This note sets out measurements from the supplement of paper PMC10724198.

The data set has as its system Saccharomyces cerevisiae. The data set is described as follows: protein stability index of tFT-peptide fusion (C-terminal peptide) (PSI (0-1 scale)); higher = more stable (slower turnover). The settings on record: temperature: 30 C. As for the experimental part:
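MPS profiling in S. cerevisiae of the yeast C-terminome library: the last 12 aa of each annotated ORF are fused to the C-terminus of a sfGFP-mCherry timer, after a GGGS linker. Cells are FACS-sorted into 8 mCherry/sfGFP bins and deep-sequenced. PSI runs from 0 (unstable) to 1 (stable); wild type and das1Δ backgrounds, two technical replicates each.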

[1] abbreviates: genetic background: das1 deletion.

± gives the standard deviation of the averaged measurements.

RPQYRRIAALEE [PSY3 C-terminal 12 aa]: the protein stability index by setting is: under setting [1], 0.695 ± 0.023; (genetic background: wild type) 0.672 ± 0.015.
The matching figures for RQEEIKKRTALV [DPC25 C-terminal 12 aa]: 0.705 ± 0.0089 and 0.619 ± 0.022.
For RRFDVYSDVNAH [NIT3 C-terminal 12 aa], the protein stability index reads like this: under setting [1], 0.71 ± 0.0033; (genetic background: wild type) 0.677 ± 0.044.
The matching figures for RSFVTRFLHFWC [HIP1 C-terminal 12 aa]: 0.777 ± 0.024 and 0.716 ± 0.046.
The matching figures for RSIRWFREAGGK [SKI8 C-terminal 12 aa]: 0.695 ± 0.018 and 0.7202 ± 0.0028.
The matching figures for RSKYGAKKPSKS [MRPS12 C-terminal 12 aa]: 0.6815 ± 0.0025 and 0.6855 ± 0.0067.
Take RSNAERKRRSPL [PBP2 C-terminal 12 aa]: the protein stability index runs as follows: under setting [1], 0.7121 ± 0.0039; (genetic background: wild type) 0.68 ± 0.021.
The matching figures for RSTNGRPQRGYR [YLR326W C-terminal 12 aa]: 0.675 ± 0.027 and 0.664 ± 0.0025.
As for RSWDEFIGFKAY [CPA2 C-terminal 12 aa], the protein stability index runs as follows: under setting [1], 0.745 ± 0.03; (genetic background: wild type) 0.615 ± 0.041.
The matching figures for RTAAESIANDRK [FRD1 C-terminal 12 aa]: 0.674 ± 0.0068 and 0.708 ± 0.05.
As for RTLGYSNNNGNN [UBX6 C-terminal 12 aa], the protein stability index under setting [1] stood at 0.679 ± 0.019 and the protein stability index (genetic background: wild type) stood at 0.678 ± 0.0087.
Take RTNHIYNYENSD [DFG16 C-terminal 12 aa]: the protein stability index was determined as 0.703 ± 0.0077 under setting [1] and 0.672 ± 0.011 (genetic background: wild type).
Turning to RVRTLARKHLSK [TRS20 C-terminal 12 aa], the protein stability index stood at 0.692 ± 0.02 under setting [1] and 0.686 ± 0.018 (genetic background: wild type).
The matching figures for SAEGSDVLYMQK [LSM7 C-terminal 12 aa]: 0.671 ± 0.0093 and 0.6739 ± 0.0053.
The matching figures for SAENEESKEKCE [LAG1 C-terminal 12 aa]: 0.696 ± 0.051 and 0.658 ± 0.021.
With SAIGSDIVNSIF [LSB1 C-terminal 12 aa], the protein stability index is, setting by setting: under setting [1], 0.7044 ± 0.0053; (genetic background: wild type) 0.676 ± 0.024.
The matching figures for SAQRDRRYRKRV [RPS17A C-terminal 12 aa]: 0.6665 ± 0.0025 and 0.69 ± 0.067.
The matching figures for SCGCGSSFDIEN [ISA2 C-terminal 12 aa]: 0.704 ± 0.015 and 0.632 ± 0.0093.
The matching figures for SDDDVSSESEEE [BDF1 C-terminal 12 aa]: 0.6997 ± 0.0067 and 0.658 ± 0.015.
“SDGFANNRCQRK [YOR034C-A C-terminal 12 aa]”: the protein stability index is, setting by setting: under setting [1], 0.658 ± 0.0075; (genetic background: wild type) 0.718 ± 0.051.
The matching figures for SDVISEESYNEA [SVF1 C-terminal 12 aa]: 0.7069 ± 0.0026 and 0.694 ± 0.0074.
The matching figures for SELQQIFPVSQQ [SPS100 C-terminal 12 aa]: 0.706 ± 0.011 and 0.689 ± 0.033.
The matching figures for SEPTNDDLDATK [MRX10 C-terminal 12 aa]: 0.678 ± 0.033 and 0.675 ± 0.019.
In the case of SESNDGESSDSD [RPA43 C-terminal 12 aa], the protein stability index turned out to be 0.656 ± 0.021 under setting [1] and 0.7176 ± 0.0024 (genetic background: wild type).
The matching figures for SFKAYVGLPTTG [PIC2 C-terminal 12 aa]: 0.706 ± 0.01 and 0.693 ± 0.009.
SFPVVEPMGGST [BDS1 C-terminal 12 aa]: the protein stability index by setting is: under setting [1], 0.69 ± 0.012; (genetic background: wild type) 0.727 ± 0.014.
The matching figures for SFRPKSSNNPFR [ENT4 C-terminal 12 aa]: 0.734 ± 0.02 and 0.674 ± 0.021.
The matching figures for SFRSSHFYSLIA [YLR217W C-terminal 12 aa]: 0.691 ± 0.012 and 0.331 ± 0.016.
For SFTHQEQDTEMN [NAB2 C-terminal 12 aa], the protein stability index came to 0.708 ± 0.032 under setting [1] and 0.736 ± 0.019 (genetic background: wild type).
SFVTKKKAACYR [YIL025C C-terminal 12 aa]: the protein stability index reads like this: under setting [1], 0.717 ± 0.011; (genetic background: wild type) 0.706 ± 0.0072.
The matching figures for SGIVENDFENRS [YOR1 C-terminal 12 aa]: 0.707 ± 0.013 and 0.705 ± 0.084.
On to SGKLASKKRDKK [MRPL36 C-terminal 12 aa], for which the protein stability index is, setting by setting: under setting [1], 0.684 ± 0.021; (genetic background: wild type) 0.651 ± 0.019.
On to SHHPHKNGKISF [YKR011C C-terminal 12 aa], for which the protein stability index under setting [1] turned out to be 0.719 ± 0.028 and the protein stability index (genetic background: wild type) was determined as 0.69647 ± 0.00034.
The matching figures for SHPIDVNLQFIM [MCA1 C-terminal 12 aa]: 0.735 ± 0.013 and 0.689 ± 0.039.
The matching figures for SISHPENKVLHK [YNL195C C-terminal 12 aa]: 0.689 ± 0.0083 and 0.699 ± 0.0077.
The matching figures for SIVYSWKENSSS [YGL217C C-terminal 12 aa]: 0.704 ± 0.031 and 0.703 ± 0.015.
Regarding SKGKNSESGGIF [PPR1 C-terminal 12 aa], the protein stability index by setting is: under setting [1], 0.699 ± 0.026; (genetic background: wild type) 0.711 ± 0.054.
The matching figures for SKKSKKSKKSEE [MRH1 C-terminal 12 aa]: 0.719 ± 0.0089 and 0.695 ± 0.053.
Consider SKNDSPKKKGWF [MAS2 C-terminal 12 aa], for which the protein stability index was found to be 0.694 ± 0.027 under setting [1] and 0.702 ± 0.018 (genetic background: wild type).
On to SLDVGKILDVTI [PSR1 C-terminal 12 aa], for which the protein stability index is 0.686 ± 0.012 under setting [1] and 0.662 ± 0.038 (genetic background: wild type).
As for SLFPSLETEDKK [MIH1 C-terminal 12 aa], the protein stability index reads like this: under setting [1], 0.674 ± 0.0077; (genetic background: wild type) 0.671 ± 0.02.
The matching figures for SLGSVFTILTDS [YGR228W C-terminal 12 aa]: 0.72 ± 0.0074 and 0.7206 ± 0.0043.
The matching figures for SLKDLIMQVTKM [CTO1 C-terminal 12 aa]: 0.753 ± 0.046 and 0.654 ± 0.069.
In turn, SLLFVGPLFLKV [YCL007C C-terminal 12 aa] returned a protein stability index under setting [1] of 0.401 ± 0.016 and a protein stability index (genetic background: wild type) of 0.423 ± 0.012.
The matching figures for SLRPQERNLYGL [NTH1 C-terminal 12 aa]: 0.691 ± 0.021 and 0.753 ± 0.095.
Regarding SLYMNISYILLF [YGR073C C-terminal 12 aa], the protein stability index runs as follows: under setting [1], 0.44985 ± 0.00042; (genetic background: wild type) 0.2066 ± 0.0013.
The matching figures for SMKPFKRRKPFF [PRP16 C-terminal 12 aa]: 0.69 ± 0.0092 and 0.72 ± 0.0089.
Take SNNATHNCGNYF [YGR122W C-terminal 12 aa]: the protein stability index reads like this: under setting [1], 0.712 ± 0.049; (genetic background: wild type) 0.764 ± 0.01.
The matching figures for SNPSSHIKKKGL [RRT6 C-terminal 12 aa]: 0.682 ± 0.014 and 0.6362 ± 0.0061.
The matching figures for SNRTLSNETDAL [ACE2 C-terminal 12 aa]: 0.7072 ± 0.0038 and 0.701 ± 0.016.
The matching figures for SPGYKAYLREER [YSF3 C-terminal 12 aa]: 0.722 ± 0.012 and 0.685 ± 0.019.
Sequence SPPLSTSPDSRR [YLR416C C-terminal 12 aa] had a protein stability index under setting [1] of 0.7198 ± 0.0012 and a protein stability index (genetic background: wild type) of 0.713 ± 0.029.
SPRLKENEHVTN [MPC54 C-terminal 12 aa] came in with a protein stability index under setting [1] of 0.693 ± 0.013 and a protein stability index (genetic background: wild type) of 0.724 ± 0.072.
As for SPYLKHLDSRKQ [CTS2 C-terminal 12 aa], the protein stability index reads like this: under setting [1], 0.722 ± 0.019; (genetic background: wild type) 0.7 ± 0.045.
The matching figures for SQEPQYKLFRGR [MRPL16 C-terminal 12 aa]: 0.6988 ± 0.0014 and 0.731 ± 0.069.
For SQNELRFEERLL [INO1 C-terminal 12 aa], the protein stability index reads like this: under setting [1], 0.683 ± 0.021; (genetic background: wild type) 0.675 ± 0.025.
The matching figures for SRIKWHVGTAYS [HHY1 C-terminal 12 aa]: 0.6943 ± 0.0031 and 0.6653 ± 0.0066.
The matching figures for SRVGRKVATLDQ [YAT2 C-terminal 12 aa]: 0.6994 ± 0.0069 and 0.694 ± 0.038.
The matching figures for SSKGFFSKLGCC [YCK2 C-terminal 12 aa]: 0.692 ± 0.0099 and 0.677 ± 0.011.
For the sequence SSSNKSQRNGRY [AIR1 C-terminal 12 aa], the protein stability index was found to be 0.712 ± 0.011 under setting [1] and 0.68967 ± 0.00054 (genetic background: wild type).
The matching figures for SSSSTSVNKTLD [VIP1 C-terminal 12 aa]: 0.734 ± 0.04 and 0.707 ± 0.053.
The matching figures for SSTTEETILVRK [RKM1 C-terminal 12 aa]: 0.689 ± 0.023 and 0.7025 ± 0.0051.
The matching figures for STCIYLYTHNSM [YBR206W C-terminal 12 aa]: 0.672 ± 0.027 and 0.673 ± 0.023.
Consider STHIDHDKFSFF [CDC8 C-terminal 12 aa], for which the protein stability index reads like this: under setting [1], 0.7087 ± 0.0024; (genetic background: wild type) 0.694 ± 0.021.
The matching figures for STQHKSTTSFTQ [TGL4 C-terminal 12 aa]: 0.716 ± 0.035 and 0.655 ± 0.022.
The matching figures for STTTVIQGEINK [LRG1 C-terminal 12 aa]: 0.671 ± 0.049 and 0.713 ± 0.036.
The matching figures for SVESLMTQQDVE [BIO4 C-terminal 12 aa]: 0.691 ± 0.011 and 0.6941 ± 0.0037.
